The results in this text go back to publication PMC9599700, “Biochemical and Structural Characterization of Chi-Class Glutathione Transferases: A Snapshot on the Glutathione Transferase Encoded by sll0067 Gene in the Cyanobacterium Synechocystis sp. Strain PCC 6803” (Biomolecules, 2022).

Residue numbers refer to the chain shown, from its start. Numbers in names are those of the source.

The target of series [1] is T1, SynGSTC1 (Sll0067) (Synechocystis sp. PCC 6803, UniProt Q55139).
T1 construct: gene gst; Ni-NTA and size exclusion; about 180 residues; two-fold dimer in crystal
T1 sequence (Q55139 1-184): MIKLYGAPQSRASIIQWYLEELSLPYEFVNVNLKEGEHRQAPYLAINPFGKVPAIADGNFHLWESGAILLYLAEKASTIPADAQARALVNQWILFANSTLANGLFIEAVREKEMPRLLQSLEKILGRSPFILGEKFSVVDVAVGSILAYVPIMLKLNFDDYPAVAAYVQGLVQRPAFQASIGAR
The series is described as follows: GSH-conjugation assay, spectrophotometric […] nm, Michaelis-Menten fit. In kind it is biochemical. Particulars: fixed saturating GSH; 100 mM phosphate pH 6.5; 25 °C.

Series [2] addresses T2, SynGSTC1 (Sll0067) (Synechocystis sp. PCC 6803, UniProt Q55139, S10C).
T2 construct: gene gst; Ni-NTA and size exclusion; about 180 residues; two-fold dimer in crystal
T2 sequence (Q55139 1-184 S10C): T1 sequence (Q55139 1-184) with S10C
The series is described as follows: NADPH/glutathione reductase-coupled thiol-transferase assay, […] nm. Particulars: fixed saturating GSH; 200 µM NADPH; 30 mM Tris-HCl pH 8.0; 25 °C; read-out: HED. It is filed as biochemical.

The target of series [3] is glutathione transferase chi1 from Synechocystis sp. PCC 6803 (SynGSTC1), wild-type (Synechocystis sp. PCC 6803). The series is described as follows: crystal structure; co-crystallised with 10 mM glutathione and 1 mM TCEP, microbatch under oil at 4 °C; space group P4(3)2(1)2, two polypeptide chains in the asymmetric unit.
Series [4] deals with T1, SynGSTC1 (Sll0067). The series is described as follows: GSH-conjugation assay, spectrophotometric […] nm, Michaelis-Menten fit. In kind it is biochemical. Particulars: fixed saturating GSH; 30 mM Tris-HCl pH 8.0, 1 mM EDTA; 25 °C.
Substrate in series [5]: S=C=NCCc1ccccc1
Description: purified protein. The following applies: fixed saturating GSH, 100 mM phosphate pH 6.5, 25 °C. In kind it is biochemical, Synechocystis sp. PCC 6803.

Substrate in series [6]: CCCC(=O)Oc1ccc([N+](=O)[O-])cc1
The series is described as follows: purified protein. In kind it is biochemical, Synechocystis sp. PCC 6803. Particulars: fixed saturating GSH, 30 mM Tris-HCl pH 8.0, 1 mM EDTA, 25 °C.

Substrate in series [7]: CC(C)(OO)c1ccccc1
Description: purified protein. Particulars: fixed GSH, 200 µM NADPH, 30 mM Tris-HCl pH 8.0, 25 °C.

Consider `S=C=NCc1ccccc1` [benzyl-isothiocyanate], for which the Km at SynGSTC1 (Sll0067) [1] was determined as 82 ± 10 µM.
As for `OCCSSCCO` [2-hydroxyethyl disulfide], the Km on SynGSTC1 (Sll0067) [2] stood at 3.3 ± 0.4 µM.
For orientation: stoichiometry N means the number of molecules, sites or subunits per partner or assembly. For the molecule “glutathione transferase chi1 from Synechocystis sp. PCC 6803 (SynGSTC1), wild-type (enzyme)”, in series [3], the stoichiometry N worked out at 2.
Regarding `O=[N+]([O-])c1ccc(Cl)c([N+](=O)[O-])c1` [1-chloro-2,4-dinitrobenzene], the Km at SynGSTC1 (Sll0067) [4] stood at 3790 ± 772 µM.

B1: SynGSTC1 (Sll0067) (Synechocystis sp. PCC 6803 substr. Kazusa) (protein)
chain: T1 sequence (Q55139 1-184)
notes: Ni-NTA and size exclusion; about 180 residues; two-fold dimer in crystal
In general, kcat refers to the maximal rate divided by the concentration of active sites. One may read the kcat/Km as the turnover number divided by the Michaelis constant. B1: in “purified protein [5]”, the Km was 33.8 ± 2.5 µM, the kcat was 12.6 ± 0.2 s⁻¹ and the kcat/Km is 373000 ± 6000 M⁻¹ s⁻¹. Besides, in the series “purified protein [6]”, the Km worked out at 162.5 ± 18.3 µM and the kcat was 0.48 ± 0.2 s⁻¹. Also, in the series “purified protein [7]”, the Km was 1508.0 ± 191.0 µM and the kcat came out at 0.91 ± 0.06 s⁻¹.

B2: SynGSTC1 (Sll0067) (Synechocystis sp. PCC 6803 substr. Kazusa; S10C) (protein)
chain: T1 sequence (Q55139 1-184) with S10C
notes: as for B1
In the case of B2, in the series “purified protein [5]”, the Km is reported as 33.0 ± 3.0 µM, the kcat was found to be 1.19 ± 0.02 s⁻¹ and the kcat/Km was found to be 36000 ± 600 M⁻¹ s⁻¹.

B3: SynGSTC1 (Sll0067) (Synechocystis sp. PCC 6803 substr. Kazusa; S10T) (protein)
chain: T1 sequence (Q55139 1-184) with S10T
notes: as for B1
Consider B3, for which, in “purified protein [5]”, the Km worked out at 33.6 ± 2.6 µM, the kcat came to 7.2 ± 0.1 s⁻¹ and the specificity constant (kcat/Km) was determined as 214000 ± 4000 M⁻¹ s⁻¹.

B4: SynGSTC1 (Sll0067) (Synechocystis sp. PCC 6803 substr. Kazusa; S10A) (protein)
chain: T1 sequence (Q55139 1-184) with S10A
notes: as for B1
As to B4, in “purified protein [5]”, the Km is 89.7 ± 6.4 µM, the turnover number (kcat) was 2.6 ± 0.05 s⁻¹ and the kcat/Km came out at 28900 ± 600 M⁻¹ s⁻¹.

B5: SynGSTC1 (Sll0067) (Synechocystis sp. PCC 6803 substr. Kazusa; R11A) (protein)
chain: T1 sequence (Q55139 1-184) with R11A
notes: as for B1
With B5, in the series “purified protein [5]”, the Km worked out at 108.4 ± 6.0 µM, the kcat stood at 0.17 ± 0.003 s⁻¹ and the kcat/Km amounted to 1530 ± 20 M⁻¹ s⁻¹.
